Laboratory results: patent US12466859B2, “Desmoglein 2 (DSG2) binding proteins and uses therefor” (UNIVERSITY OF WASHINGTON THROUGH ITS CENTER FOR …, priority 2013, dated 2025)
Substitutions are numbered along the chain they refer to. Entries after “also recorded” stand apart in the source; their conditions may differ.

B1: JO-1: dimeric protein that contains the wild-type Ad3 fiber knob and a self-dimerization domain (SEQ ID NO:27) (protein, listed as Homo sapiens)
chain: MKVSALKEKVSALKEKVSALKEKVSALKEKVSALKEGSGGGSGGGSGGGSNSIALKNNTLWTGPKPEANCIIEYGKQNPDSKLTLILVKNGGIVNGYVTLMGASDYVNTLFKNKNVSINVELYFDATGHILPDSSSLKTDLELKYKQTADFSARGFMPSTTAYPFVLPNAGTHNENYIFGQCYYKASDGALFPLEVTVMLNKRLPDSRTSYVMTFLWSLNAGLAPETTQATLITSPFTFSYIREDD
modifications: dimer
B2: JO-4 (protein)
chain: B1 chain with Y177F

Experiments:
Assay type in all cases: in vivo, hDSG2 transgenic mice
[1] = Serum clearance of JO-1 and JO-4 by ELISA; details: 2 mg/kg i.v.; mice with TC1-hDSG2 tumors
Method: (§1) FIG. 11A-11C. Pharmacokinetics, toxicity, and immunogenicity of JO-4. FIG. 11A) Serum clearance of JO-1 and JO-4. hDSG2 transgenic mice with subcutaneous TC1-hDSG2 tumors (˜600 mm^3) were intravenously injected with JO-1 or JO-4 (2 mg/kg) and serum samples were analyzed for by ELISA. N=3. Note that the y-axis has a log scale. FIG. 11B1) Lymphocyte and FIG. 11B2) platelet counts in hDSG2/TC1-hDSG2 transgenic mice after JO-1 or JO-4 injection. N=3. FIG. 11C) Therapy studies in immunocompetent hDSG2 transgenic mice with TC1-hDSG2 tumors. When tumors reached a volume of ˜80 mm^3, JO-1 or JO-4 (2 mg/kg) or PBS was injected intravenously followed one hour later by PLD/Doxil (i.v. 1.5 mg/kg). Treatment was repeated as indicated by arrows. Tumors were then allowed to re-grow for about two weeks. From day 15 on serum anti-JO-1/J)—4 antibodies were detectable by ELISA. Two more treatment cycles were performed at day 28 and day 35. […] The difference between JO-1/PLD vs JO-4/PLD is significant from day 31 on. N=10.
Two of the affinity enhanced version of JO-1, Y293D and V250F were analyzed in in vivo assay. We called these mutants JO-2 and JO-4, respectively. The first study was performed in a xenograft model derived from A549 cells similar to the study described for FIG. 5B. […] We also analyzed hematological parameters after i.v. JO-1 and JO-4 injection.

TC1-hDSG2 tumors = test: PLD therapy with repeated injection in immunocompetent mice with TC1-hDSG2 tumors; details: 2 mg/kg i.v. one hour before PLD 1.5 mg/kg; 3rd and 4th cycle, serum antibodies detectable
Method: as §1
A549, MDA-MB-231, and ovc316 xenograft tumors were established by injection of the corresponding tumor cells into the mammary fat pad (1:1 with Matrigel) of CB17 mice. […] Tumor volumes were measured three times a week. […]
JO-1 and JO-4 are virus-derived proteins and immunogenic. In immunocompetent mice, serum IgG antibodies against these proteins can be detected by ELISA two weeks after injection (5). […]

[2] = Blood chemistry and blood cell counts after i.v. injection; details: for Blood chemistry / Lymphocyte and platelet number after injection: after i.v. injection, 2 mg/kg
Method: as §1
Two of the affinity enhanced version of JO-1, Y293D and V250F were analyzed in in vivo assay. We called these mutants JO-2 and JO-4, respectively. The first study was performed in a xenograft model derived from A549 cells similar to the study described for FIG. 5B. […] Additional studies were performed in xenograft tumors derived from ovc316 cells (30, 32). Ovc316 cells are Her2/neu positive epithelial tumor cells derived from an ovarian cancer biopsy. These cells can undergo EMT and the reverse process, mesenchymal-to-epithelial-transition (MET), under specific conditions in vitro and in vivo. A subfraction of ovc316 cells that is positive for Nanog, CD133, and E-cadherin is enriched for cancer stem cells, i.e. self-renewing cells with pluripotent potential and tumor forming ability (30). Ovc316 cells therefore closely model the heterogeneity and plasticity seen in tumors in situ. […] Finally, we tested JO-4 in a model for triple-negative breast cancer (TNBC). TNBC is characterized by a lack or minimal expression of estrogen receptor (ER), progesterone receptor (PR) and the absence of Her2/neu overexpression. TNBC accounts for 15% of all breast cancers. Overall survival is poor compared with that in patients who have other phenotypes. A characteristic feature of TNBC is high levels of DSG2 and epithelial junctions. Promising clinical results in the treatment of TNBS have been achieved with nanoparticle, albumin-conjugated paclitaxel (nab-paclitaxel/Abraxane™) alone or in combination with the EGFR-targeting mAb cetuximab/Erbitux™ (38). […] Because of its therapeutic relevance, we further studied JO-4 in an adequate mouse tumor model. […] These mice were subcutaneously implanted with syngeneic TC1-hDSG tumors. When tumors reached a volume of ˜600 mm^3, JO-1 or JO-4 was intravenously injected for safety and efficacy studies. […] After one hour post-injection JO-1 and JO-4 concentration reached a plateau with −100 ng/ml. We also analyzed hematological parameters after i.v. JO-1 and JO-4 injection.

Molecule | Decline of serum concentration within an hour after injection [1] | Enhancing effect on PLD therapy after repeated treatment cycles (TC1-hDSG2 tumors) | Blood chemistry [2] | Lymphocyte and platelet number after injection [2] | Lymphocyte and platelet counts at nadir compared with JO-1 ([2]; 24 hours p.i., p<0.01) | Return of lymphocyte and platelet counts to normal levels ([2]; compared with JO-1 treated animals)
B1 | declined more than one order of magnitude | enhancing effect; also recorded: continued to be effective | did not show abnormal changes | decreased early after injection |  | 
B2 | declined more than one order of magnitude; also recorded: significantly greater; also recorded: rapidly decrease | significantly stronger; also recorded: continued to be effective | did not show abnormal changes | decreased early after injection; also recorded: transient reduction | significantly lower numbers | faster
